± gives the uncertainty stated by the source.
Test: self-splicing fitness, log relative to wild type (ln ratio); higher = more splicing; Tetrahymena group I intron in knt gene, E. coli kanamycin selection, DiMSum; sequences stand for … in CUCUCU…GGAGGGAAAAGUUAUCAGGCAUGCACCUGGUAGCUAGUCUUUAAACCAAUAGAUUGCAUCGGUUUAAAAGGCAAGACCGUCAAAUUGCGGGAAAGGGGUCAACAGCCGUUCAGUACCAAGUCUCAGGGGAAACUUUGAGAUGGCCUUGCAAAGGGUAUGGUAAUAAGCUGACGGACAUGGUCCUAACCACGCAGCCAAGUCCUAAGUCAACAGAUCUUCUGUUGAUAUGGAUGCAGUUCACAGACUAAAUGUCGGUCGGGGAAGAUGUAUUCUUCUCAUAAGAUAUAGUCGGACCUCUCCUUAAUGGGAGCUAGCGGAUGAAGUGAUGCAACACUGGAGCCGCUGGGAACUAAUUUGUAUGCGAAAGUAUAUUGAUUAGUUUUGGAGUACUCGUGGUCG
In short: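 The eight P1ex-region nucleotides of an intron in the knt kanamycin-resistance gene on pET-22b(+) were all randomised and the library put into E. coli BL21(DE3). Six replicate transformations were grown overnight at 37°C or 30°C on LB agar with or without 25 μg/mL kanamycin, together with 100 μg/mL carbenicillin, 50 μM IPTG and 0.2% rhamnose. Colonies were pooled and amplicon-sequenced on an Illumina HiSeq 2500. Fitness from DiMSum is the error-weighted combination of wild-type-normalised replicate fold changes, kanamycin over none.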

Sequence	self-splicing fitness (ln) (30 °C)	self-splicing fitness (ln) (37 °C)
AGCCAGCAAUAUUACGCACC	-0.939 ± 0.18	-1.12 ± 0.18
ACGAAGCAAUAUUACGAGAA	-1.6 ± 0.37	–
ACCGAGCAAUAUUACGCCCU	-2.6 ± 0.25	0.248 ± 0.21
GCCUAGCAAUAUUACGGUAA	-0.151 ± 0.079	-0.546 ± 0.075
UAUAAGCAAUAUUACGGCGA	-0.0284 ± 0.1	-0.427 ± 0.11
GCACAGCAAUAUUACGUUUU	-1.14 ± 0.046	-0.268 ± 0.065
UCUGAGCAAUAUUACGAGUG	-3.98 ± 0.4	-1.24 ± 0.22
ACUCAGCAAUAUUACGCUAG	-1.74 ± 0.094	-1.3 ± 0.11
CAAGAGCAAUAUUACGUUCA	-2.46 ± 0.17	-2.09 ± 0.19
AGGUAGCAAUAUUACGGCGC	-0.0707 ± 0.015	0.163 ± 0.033
GUAUAGCAAUAUUACGCUGC	-2.6 ± 0.48	-0.913 ± 0.3
UAUCAGCAAUAUUACGGAAU	-2.23 ± 0.1	-1.27 ± 0.12
GUACAGCAAUAUUACGUCGA	-2.07 ± 0.11	-1.78 ± 0.12
AAAAAGCAAUAUUACGACCC	0.000517 ± 0.17	0.616 ± 0.24
CUCAAGCAAUAUUACGGCCU	-4.43 ± 0.39	-2.53 ± 0.32
GAAAAGCAAUAUUACGCUGC	-3.12 ± 0.24	-1.61 ± 0.39
UCCCAGCAAUAUUACGAAAA	-2.38 ± 0.2	-0.834 ± 0.18
AGACAGCAAUAUUACGCGUU	-3.47 ± 0.16	-2.11 ± 0.14
GUACAGCAAUAUUACGAUGC	-1.03 ± 0.12	-1.06 ± 0.12
GAUUAGCAAUAUUACGAUUA	-0.22 ± 0.1	-0.0882 ± 0.092
ACUCAGCAAUAUUACGAUGU	-1.35 ± 0.064	-0.811 ± 0.074
CACUAGCAAUAUUACGGUCA	-0.522 ± 0.092	-0.198 ± 0.12
AAGUAGCAAUAUUACGAACG	-1.86 ± 0.11	-1.17 ± 0.13
GCAUAGCAAUAUUACGGGUG	-2.29 ± 0.13	-1.82 ± 0.12
CGAAAGCAAUAUUACGCACC	-1.17 ± 0.14	-0.396 ± 0.19
GGGAAGCAAUAUUACGUUUG	-2.72 ± 0.22	-1.74 ± 0.21

Sequence	self-splicing fitness (ln) (30 °C)	self-splicing fitness (ln) (37 °C)
CCGUAGCAAUAUUACGAAAG	-1.37 ± 0.088	0.537 ± 0.1
AUUUAGCAAUAUUACGACAC	-0.837 ± 0.12	-0.373 ± 0.14
ACUCAGCAAUAUUACGACUA	-0.633 ± 0.12	-0.128 ± 0.12
UUACAGCAAUAUUACGGCCC	-0.167 ± 0.33	–
ACCGAGCAAUAUUACGCGAU	-2.5 ± 0.14	-1.73 ± 0.14
UAGUAGCAAUAUUACGCAUA	-1.58 ± 0.11	-1.69 ± 0.11
CCAUAGCAAUAUUACGCUAA	-3.38 ± 0.22	-2.75 ± 0.32
CAAUAGCAAUAUUACGUCUU	-3.63 ± 0.14	-2.09 ± 0.13
AGAGAGCAAUAUUACGCUUU	-3.54 ± 0.41	-2.52 ± 0.45
CACGAGCAAUAUUACGGUUU	-3.79 ± 0.33	-2.93 ± 0.36
AAUUAGCAAUAUUACGGGAU	-2.28 ± 0.22	-1.37 ± 0.2
ACGGAGCAAUAUUACGCAAC	–	-2.4 ± 0.35
GCUUAGCAAUAUUACGGAUC	-0.319 ± 0.092	0.437 ± 0.11
GGACAGCAAUAUUACGGCUA	-0.452 ± 0.13	-0.278 ± 0.12
UCUAAGCAAUAUUACGCUCG	-1.43 ± 0.2	-1.36 ± 0.18
GCAAAGCAAUAUUACGGGGU	-3.73 ± 0.15	-2.5 ± 0.15
UCUCAGCAAUAUUACGGUUC	-2.57 ± 0.21	-1.73 ± 0.34
UCGAAGCAAUAUUACGUCCG	-0.163 ± 0.1	-0.412 ± 0.12
UUACAGCAAUAUUACGUAAA	-1.59 ± 0.13	-0.34 ± 0.12
UGGCAGCAAUAUUACGUAGA	-0.926 ± 0.084	-0.264 ± 0.094
CAAGAGCAAUAUUACGUCAG	-3.25 ± 0.16	-0.429 ± 0.11
CCCUAGCAAUAUUACGAGUU	-2.39 ± 0.14	-3.11 ± 0.2
GAUUAGCAAUAUUACGAGUA	-2.63 ± 0.17	-0.695 ± 0.13
GUUAAGCAAUAUUACGUUUC	-1.75 ± 0.21	-1.29 ± 0.18
GAAGAGCAAUAUUACGAACG	–	-2.41 ± 0.33
AGUGAGCAAUAUUACGCCUG	-3.85 ± 0.29	-2.38 ± 0.29

Sequence	self-splicing fitness (ln) (30 °C)	self-splicing fitness (ln) (37 °C)
UGACAGCAAUAUUACGAACU	-0.592 ± 0.14	0.0955 ± 0.17
CGGUAGCAAUAUUACGCCAA	-2.52 ± 0.21	-2.6 ± 0.3
CUCGAGCAAUAUUACGUGAG	-2.41 ± 0.17	-2.32 ± 0.23
GAGCAGCAAUAUUACGUUUG	-2.84 ± 0.11	-1.31 ± 0.11
ACACAGCAAUAUUACGAACA	-1.69 ± 0.082	-1.18 ± 0.079
AGAUAGCAAUAUUACGCGUC	-2.53 ± 0.2	-0.587 ± 0.47
GACUAGCAAUAUUACGGGCC	–	-2.46 ± 0.41
UUCAAGCAAUAUUACGACGU	-0.831 ± 0.094	0.325 ± 0.13
GGAUAGCAAUAUUACGGAGG	-3.06 ± 0.2	-2.77 ± 0.3
UCAGAGCAAUAUUACGCAAA	-1.85 ± 0.23	-2.03 ± 0.46
UAUAAGCAAUAUUACGUUAU	-2.58 ± 0.19	-2.3 ± 0.28
UGGCAGCAAUAUUACGCACC	-2.36 ± 0.22	-1.37 ± 0.25
CGAGAGCAAUAUUACGAAGG	-3.4 ± 0.22	-2.69 ± 0.32
UCAAAGCAAUAUUACGGGGA	-0.69 ± 0.075	-0.383 ± 0.085
ACAGAGCAAUAUUACGUUCU	-3.89 ± 0.26	-3.29 ± 0.29
UCUGAGCAAUAUUACGUAUG	-3.07 ± 0.18	-2.07 ± 0.17
AGAAAGCAAUAUUACGGAGG	-3.33 ± 0.16	-2.72 ± 0.3
GUUAAGCAAUAUUACGGUAG	-2.87 ± 0.17	-1.69 ± 0.17
UGUCAGCAAUAUUACGCUAA	-0.476 ± 0.071	0.355 ± 0.094
CUAGAGCAAUAUUACGCGGU	-1.42 ± 0.092	-0.641 ± 0.13
AGAAAGCAAUAUUACGUAGC	-4.04 ± 0.22	-2.5 ± 0.2
UCUGAGCAAUAUUACGGGUA	–	-2.42 ± 0.34
GGGUAGCAAUAUUACGCGUG	-0.787 ± 0.13	0.175 ± 0.12
AGAAAGCAAUAUUACGGCCG	-0.348 ± 0.11	-0.28 ± 0.14
GUAAAGCAAUAUUACGCCGU	-0.433 ± 0.085	0.561 ± 0.11
CGUCAGCAAUAUUACGGUUC	-3.67 ± 0.31	-0.0181 ± 0.15

Reference: the supplement of paper PMC7877785
